Legend:
[1] = biological target: T1, recombinant human PD-1 expressed with a C-terminal myc-myc-hexahistidine tag (human); experiment: SPR (Biacore), mAb captured, hPD-1-MMH injected, 25 C;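 further: rate constants obtained by fitting sensorgrams to a 1:1 binding model, KD derived as kd/ka and half-life as ln2/(60·kd) in minutes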
T1 construct: also called hPD-1-MMH; human PD-1-MMH

[2] = biological target: T1, recombinant human PD-1 expressed with a …; experiment: SPR (Biacore), hPD-1-MMH, 37 C; end of range tied to H2aM7796N by Table 5
[3] = biological target: T2, full length human PD-1 on HEK293 cells (HEK293/hPD-1) (human, UniProt Q15116 25-288); experiment: FACS, dose titration on HEK293/hPD-1 cells; end tied to H2aM7796N by Table 21
T2 construct: also called human PD-1 expressing cells

[4] = biological target: T3, dimeric biotinylated human PD-1 protein, human PD-1 extracellular domain with a C-terminal human Fc tag (human, biotinylated (sites not given)); experiment: competition ELISA: blocking 200 pM biot-hPD-1-hFc binding to coated hPD-L1-mFc; end tied to H2aM7796N (and H4xH9008P) by Table 13
T3 construct: also called biot-hPD-1-hFc

- Kd [1]: 286 nM
- koff [1]: 0.00193 s⁻¹
- kon [1]: 6730 M⁻¹ s⁻¹
- t½ [1]: 6 min
- Kd [2]: 1510 nM
- EC50 [3]: 4.81 nM
- IC50 [4]: 1.3 nM
B1: H2aM7796N (antibody, mouse IgG2a, V domains shown)
VH: QVQLVESGGGVVQPGRSLRLSCAASGFTFSSYGMHWVRQAPGKGLEWVAIIWSDGDSEYNLDSVKGRFTISRDNSKNTLYLQMNSLRVEDSAVYYCARDRDLEDIWGQGTMVTVSS
VL: DIQMTQSPSSLSASVGDRVTITCRASQGIRNDLGWYQQKPGKAPKRLIYAASNLQSGVPSRFSGSGSGTEFTLTISSLQPEDFATYYCLQHNSYPLTFGGGTKVEIK
notes: Human variable domains, mouse IgG2a Fc; also called H2M7796N

— US20150203579A1 (Regeneron, published 2015)
